Molecular target: T1, PhoB~P (phosphorylated PhoB) (Escherichia coli) (UniProt P0AFJ5)
T1 sequence: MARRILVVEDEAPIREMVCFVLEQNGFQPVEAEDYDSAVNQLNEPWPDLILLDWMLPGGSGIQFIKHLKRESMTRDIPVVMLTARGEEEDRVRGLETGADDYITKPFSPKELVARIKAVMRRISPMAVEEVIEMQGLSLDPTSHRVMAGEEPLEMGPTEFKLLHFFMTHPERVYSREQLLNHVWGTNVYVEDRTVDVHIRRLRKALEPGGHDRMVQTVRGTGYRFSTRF
Experiment: EMSA
Conditions: phosphoramidate-phosphorylated PhoB, 50 mM Tris pH 7.6, 200 mM NaCl, 0.1 mg/ml BSA, 2 mM MgCl2, 1 mM DTT, 5% glycerol, ~0.1 uM DNA (mM in the source), 15 uM nonfluorescent competitor dsDNA, 30 min, 12% …

Sequence	Kd (Hill fit)	Kd (two-site per DNA binding model)
CTGCAGGAAGAAGGAAAACGCTGGTTTGACAATCTTGCCGCTAACGGAAAAATCGAAATGGCCTGGCAGGAAACTTTCTGGGCGCATGGCTTTGGCAAAGTCACCGATAAATTTGGCGTACCGTGGATGATTAATGTCGTCAAACAACAACCAACGCAATAACCCGCCGGGAGGCCCGCCCTCCCGCACTGTCATCGAATTCCCGTTAACTCTTCATCTGTTAGTCACTTTTAATTAACCAAATCGTCACAATAATCCGCCACGATGGAGCCACTTTTTTAGGGAGGCTGCATCATGCAAACGATTTGATCTAGAAATAATTTTGTTTAACTTTAAGAAGGAGATATACAAATGGTGAGC (double strand) [phnC promoter]	0.0017 mM	
GCCACGGAAATCAATAACCTGAAGATATGTGCGACGAGCTTTTCATAAATCTGTCATAAATCTGACGCATAATGACGTCGCATTAATGATCGCAACCTATTTATTACAACAGGGCTGATCTAGAAATAATTTTGTTTAACTTTAAGAAGGAGATATACAAATGGTGAGC (double strand) [phoB promoter]		0.00025 mM
